Measurements published in PMC4063770, “A Dimerized HMX1 Inhibits EPHA6/epha4b in Mouse and Zebrafish Retinas” (PLoS ONE, 2014).

Molecular target: the molecule itself
Test: native gel or EMSA; lysate in non-denaturing lysis buffer (20 mM Tris-HCl, 137 mM NaCl, 10% glycerol, 1% Triton X-100, 2 mM EDTA, pH 8.0), 5 ug on a 4-15% gel run without SDS, compared with a denaturing gel; Western blot with anti-HA

B1: HA-tagged wild-type HMX1 (natural protein)
chain: not shown
notes: HMX1 (NKX5-3), wild type; also called HA-HMX1; source: HEK 293T, transfected, in lysate
stoichiometry N: 2
